Measured values taken from the nanobody polyreactivity screen of Harvey et al. (2022).

Experiment: yeast display, Sf9 membrane polyspecificity reagent, FACS + sequencing; frameworks hold sequencing errors
Summary of the method: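 Polyreactivity labels are assigned by the sorting gate from which each nanobody was recovered. The gates were low and high (top ~1%), set on anti-HA fluorescence for expression and streptavidin fluorescence for reagent binding. Before sorting, galactose-induced (36–48 hours) yeast display cells were stained for 1 hour at 4 °C with 10% biotinylated, detergent-solubilized Sf9 membrane reagent.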

Sequence	polyreactivity (PSR sort gate)
QVQLVESGGGLVQAGGSLRLSCAASGRILYSYAMGWYRQAPGKERELVAAISSTGSTYYADSVKGRFTISRDNAKNTVYLQMNSLKPEDTAVYYCAATFYPYQVHHYYYWGQGTQVTVSS	low polyreactivity
QVQLVESGGGLVQAGGSLRLSCAASGRILYTYAMGWYRQAPGKERELVASIRSSGGITYYADSVKGRFTISRDNAKNTVYLQMNSLKPEDTAVYYCNAPYLVGTGPNGEYDYWGQGTEVTVSS	high polyreactivity
QVQLVESGGGLVQAGGSLRLSCAASGRILYWYTMGWYRQAPGKERELVAAITDSVGRTYYADSVKGRFTISRDNAKNTVYLQMNSLKPEDTAVYYCNADPYAQQPYSYYYGYDYWGQGTQVTVSS	low polyreactivity
QVQLVESGGGLVQAGGSLRLSCAASGRILYYYAMGWYRQAPGKERELVAAISGSAGTTYYADSVKGRFTISRDNAKNPVYLQMNSLKPEDTAVYYCSKYYPYIQADYGYDYWGQGTQVSVSS	low polyreactivity
QVQLVESGGGLVQAGGSLRLSCAASGRILYYYAMGWYRQAPGKERELVAGITTDDSTNYADSVKGRFTISRDNAKNTVYFQMNSLKPEDTAVYYCAAKYVHGEYDYWGQGTQVTVSS	low polyreactivity
QVQLVESGGGLVQAGGSLRLSCAASGRIQDINAMGWYRQAPGKERELVAAISYGGGTTYYADSVKGRFTISRDNAKNTVYLQMNSLKPEDTAVYYCAKDGYFPEFDYWGQGTQVTVSS	high polyreactivity
QVQLVESGGGLVQAGGSLRLSCAASGRIRFNVMGWYRQAPGKERELVAAITGGGTTYYADSVKGRFTISRDNAKNTVYLQMNSLKPEDTAVYYCAARALYSRINQIPSYYWGQGTQVTVSS	high polyreactivity
QVQLVESGGGLVQAGGSLRLSCAASGRISAFNSMGWYRQAPGKERELVAAINVSGGNTYYADSVKGRFTISRDNAKNTFFLQMNSLKPEDTAVYYCAAERRRWGLDYYYWGQGTQVTVSS	high polyreactivity
QVQLVESGGGLVQAGGSLRLSCAASGRISARYVMGWYRQAPGKERELVAAISWSGDRTYYADSVKGRFTISRDNAKNTVYLQMNSLKPEDTAVYYCATGFYSRLAYGYGYWGQGSQVTVSS	high polyreactivity
QVQLVESGGGLVQAGGSLRLSCAASGRISASYAMGWYRQAPGKERELVAAITGSGGSTYYADSVKGRFTISRDNAKNTVYVQMNSLNPEDTAVYYCAADPGWAWWVLNYWVQGTQVTVSS	low polyreactivity
QVQLVESGGGLVQAGGSLRLSCAASGRISASYAMGWYRQAPGKEREWVAAITGSGGSTYYADSVKGRFTISRDNAQNTVYLQMNSLKPEDTGVYYCAAEPVLSVFFEFDSWGQGTQVTVSS	low polyreactivity
QVQLVESGGGLVQAGGSLRLSCAASGRISFRIRWDGIDRRLGKKGSWLPLLTNTGSTNYADSVKGRFTISRDNAKNTVYLQMNSLKPEDTAVYYCNADQTGGSSYPAYFEYDYWGQGTQVTVSS	low polyreactivity
QVQLVESGGGLVQAGGSLRLSCAASGRISGFYTMGWYRQAPGKERELVATITRSGSRTYYADSVKGRFTISRDNAKNTVYLQMNSLKPEDTAVYYCARSQAVYDGWFAKFGYWGQGTQVTVSS	low polyreactivity
QVQLVESGGGLVQAGGSLRLSCAASGRISGLYAMGWSRQAPGKEWELVADSTYYADSVKGRFTISRDNAKNTVYLQMNSLKEEDTAVYYCAAVGGGTSTYSGDYWGQGTQVTVSS	high polyreactivity
QVQLVESGGGLVQAGGSLRLSCAASGRISGWNAMGWYRQAPGKERELVAASTWSDGSTYYADSVKGRFTISRDNAKNTVYLQMNSLKPEDTAVYYCAAEYGWYAGDPYYGYDYYWGQGTQVTVSS	high polyreactivity
QVQLVESGGGLVQAGGSLRLSCAASGRISIIYAMGWYRQAPGKERELVARISGSGGSTNYADSVKGRFTISRDNAKNTVYLQMISLKPEDTAVYYCAAVPWRIHKYYYWGQGTQVTVSS	high polyreactivity
QVQLVESGGGLVQAGGSLRLSCAASGRISKRNVMGWYRQAPGKERELVAGITSTGSTSYADSVKGRFTISRDNAKNTVYLQMNSLKPEDTAVYYCAARGQATYNWGQGTQVTVSS	high polyreactivity
QVQLVESGGGLVQAGGSLRLSCAASGRISPKNAMGWNTQAPGKERELVATIRKIGGRTYYADSVKGRFTISRDNAKNTVYLQMNSLKPEDTAVYYCATDFAPSYYPDRFDYWGQGTQVTVSS	low polyreactivity
QVQLVESGGGLVQAGGSLRLSCAASGRISRGYAMGWYRQAPGKERELVAAIDSDGDTNYADSVKGRFTISRDNAKNTVYLQMNRLKAEDTAVYYCNKDGAYKTAYKRWTLYDYWGQGTQVTVSS	low polyreactivity
QVQLVESGGGLVQAGGSLRLSCAASGRISRLYAMGWYRQAPGKERELVAAITDSGGSTYYADSVKGRFTISRDNAKNTVYLHMNSLKPEDTAVYDCAATWSNWYREYYYWGQGTQVTVSS	high polyreactivity
QVQLVESGGGLVQAGGSLRLSCAASGRISSYYVMGWYRQAPGKERELVAAITGGDSTNYADSVKGRFTISRDNAKNTVYLQMNSLKPEDTAVYYCAAKAYSYSRWGYYGYYYWGQGSQVTVSS	high polyreactivity
QVQLVESGGGLVQAGGSLRLSCAASGRISTAYAMGWYRQAPGKERELVAAISSGTSTTYADSVKGRFTISRDNAKNTVYLQMNSLQPEDTAVYYCNADSWYGHYDSWGQGTQVTESS	low polyreactivity

Sequence	polyreactivity (PSR sort gate)
QVQLVESGGGLVQAGGSLRLSCAASGRISTYTMGWYRQAPGKERELVATISTDASTNYADSVKGRFTISRDNAKNTVYLQINSLKPEDTAVYYCAAVIVNQYYDYWGQGTQVTVSS	low polyreactivity
QVQLVESGGGLVQAGGSLRLSCAASGRISVFNAMGWYRHAPGKERELVAAITSGGSTNYADSVKGRFTISRDNAKNTVYLQMNSLKPEDTAVYYCNADVYHSHEPHYDYWGQGTQVTVSS	low polyreactivity
QVQLVESGGGLVQAGGSLRLSCAASGRISVFNAMGWYRQAPGKERELVATITDGGSTYYADSVKGRFTISRDNAKNSVYLQMNSLKPEDTAVYYCAKKQVTTDVSSETFVLEMDYLGQGTQVTVSS	low polyreactivity
QVQLVESGGGLVQAGGSLRLSCAASGRISVFYTMGWYRQAPGKERELVAVIRTSGGRTNYADSVKGRFTISRDNAKNTVYLQMNSLKPEDTAVYYCAARVVRYGYKYYYWGQGTQVTVSS	low polyreactivity
QVQLVESGGGLVQAGGSLRLSCAASGRISWGYAMGWYRQAPGKERELVAVINFNGGRTYYADSVKGRFTISRDNAKNTVYLQMNSLKAEDTAVYYCAADSGYEYDYWGQGTQVTVSS	low polyreactivity
QVQLVESGGGLVQAGGSLRLSCAASGRISYANSMGWYRQAPGKESELVASITYSAGSTYADSVKGRFTISRDNAKNTVYLQMNSLKPEDTAVYYCAKRPSQHYRSYLMDYWGQGTQVTVSS	low polyreactivity
QVQLVESGGGLVQAGGSLRLSCAASGRISYLYTMGWYRQAPGKERELVAAIRWRDGSTYYADSVKGRFTISRDNAKNTVYLQMNSLKPEDTAVYYCAKRFAGGEYGYYWGQGTQVTVSS	low polyreactivity
QVQLVESGGGLVQAGGSLRLSCAASGRISYYYLGWYRQAPGKERELVAAISWNGGRTYYADSVKGRFTISRDNAKNTVYLQMNSLKPEDTAVYYCAAKTGYYPYGYWGQGTQVTVSS	high polyreactivity
QVQLVESGGGLVQAGGSLRLSCAASGRIVGRYVMGWYRQARGKERELVAAITSGGSTYYADSVKGRFTISRDNAKNTVYLQMNSLKPEDTAVYYCAAKWRSPRYYLYGYWGQGTQVTVSS	high polyreactivity
QVQLVESGGGLVQAGGSLRLSCAASGRIVSLNAMGWNRQAPGKERELVAGIRKRGRSTYYADSVKGRFTISRDNAKNTVYLQMNSLKPEDTAVYYCAAQPALTYRFYYWGQGTQVTVSS	high polyreactivity
QVQLVESGGGLVQAGGSLRLSCAASGRIVVPYAMGWYRQAPGKERELVAAITSGGSTYYADSVKGRFTISRDNAKNTVYLQMNSLKPEDTAVYYCAATSRRSSETYYFWGQGTQVTVSS	high polyreactivity
QVQLVESGGGLVQAGGSLRLSCAASGRIWSNAMGWYRQAPGKERELVAVISSRGGSTYYADSVKGRFTISRDNAKNTVYFQMNSLKPEDTAVYYCAARQRAKYNYWGQGTQVTVSS	high polyreactivity
QVQLVESGGGLVQAGGSLRLSCAASGRIYAMGWYRQAPGKERELVAAISRGGSTYYADSVKGRFTISRDNAKNTVYLQKNSLKPEDTAVYYCNRKSYRLRWKVRGQYLLGYDWGQGTQVTVSS	high polyreactivity
QVQLVESGGGLVQAGGSLRLSCAASGRIYAMGWYRQAPGKERELVAAISYSGGSTYYADSVKGRFTISRDNAKNTVYLQMNSLKPEDTAVYYCAAVIYRGYYYWGQGTQVTVSS	high polyreactivity
QVQLVESGGGLVQAGGSLRLSCAASGRIYGAYAMGWYRQAPGKEMEMVAAITSAGSTLYADSVKGRFTISRDNAMNTVYLQMNSLNPEDTAVYYCAADGIARAYVLFDAYDFLYDYWGQGTQVTVSS	low polyreactivity
QVQLVESGGGLVQAGGSLRLSCAASGRIYLRYTMGWYRQAPGKERELVAAISARTTGTYYADSVKGRFTISRDNAKNTVYLQMKSLKPEDTAVYYCASKSKLSRDLYSWGQGTQVTVSS	low polyreactivity
QVQLVESGGGLVQAGGSLRLSCAASGRIYRNAMGWYRPAPGKERELVAAISSRGASTYYADSVKGRFTITRDNAKNTVYLQMNSLKPEDTAVYYCAARTSSSSGYYAREYWGQGTQVTVSS	high polyreactivity
QVQLVESGGGLVQAGGSLRLSCAASGRIYTWNAMGWYRQAPGKERDLVASISRSGTSTYYADSVKGRNTISRDNALTTVYLQMNSLKPEDTAVYYCAAKTSRGDRTQVEYWGQGTQVTVSS	high polyreactivity
QVQLVESGGGLVQAGGSLRLSCAASGRIYVKNAMGWYRPAPGKERELVAAINWRGTSTYYADSVKGRFTISRDNAKNTVYLQMKSLKPEDTAVYYCNRVLGYPYGVDYWGQGTQVTVSS	high polyreactivity
QVQLVESGGGLVQAGGSLRLSCAASGRIYWWYAMGGSRQEPGKERELVAGISWSGGSTYYADSVKGRFTISRDNAKNTVYLQMNSLKPEDSAVYYCNAQYASGRSYFFYWHRFDYGGQGTQVTVSS	high polyreactivity
QVQLVESGGGLVQAGGSLRLSCAASGRIYYNAMGWYRQAPGKEGELVAAISGSGTRTYYADSVKGRFTISRDNAKTTVYLQMNSQKPEDTAVYYCARYYSHYSTYDYVRYGYWGQGTQVTVSS	high polyreactivity
